Source: article PMC7552397, “Crystal structure of caspase-11 CARD provides insights into caspase-11 activation” (Cell Discovery, 2020)

Tests used:
[1] = target: T1, caspase-11 p20 subunit of the catalytic domain (murine, UniProt P70343 60-266); assay: SEC; analytical gel-filtration column of auto-processed wild-type caspase-11 from E. coli; the fraction then on an SDS gel, bands identified by N-terminal sequencing and mass spectrum; details: both partners purified
T1 construct: caspase-11, murine, p20 subunit, residues 60–266; source: E. coli, by auto-processing of MBP-tagged full-length wild-type caspase-11, purified
T1 sequence (looked up): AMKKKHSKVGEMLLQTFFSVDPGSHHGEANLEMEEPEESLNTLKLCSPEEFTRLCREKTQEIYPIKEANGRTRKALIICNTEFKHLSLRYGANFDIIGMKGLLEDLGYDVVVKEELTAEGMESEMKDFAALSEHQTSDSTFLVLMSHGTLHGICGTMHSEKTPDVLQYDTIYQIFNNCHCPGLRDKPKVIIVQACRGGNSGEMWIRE

[2] = target: the molecule itself; assay: SEC-MALS; DAWN HELEOS 8+, room temperature, samples at 1 mg/mL in 250 mM NaCl, 10 mM Tris-HCl pH 8.0; ASTRA analysis
[3] = target: the molecule itself; assay: AUC; sedimentation velocity, 50,000 r.p.m., 20.0 °C, 250 mM NaCl, 10 mM Tris-HCl pH 8.0; 0.187 and 1.53 mg/mL; c(s) distributions; monomer to homodimer and homotetramer
[4] = target: the molecule itself; assay: SEC; gel filtration on Superdex 200, 250 mM NaCl, 10 mM Tris-HCl pH 8.0; MBP-tagged proteins, 1 mg each where told

B1: caspase-11 p10 subunit of the catalytic domain (domain or fragment, murine, UniProt P70343 286-373, looked up)
chain: AVKLSHVEKDFIAFYSTTPHHLSYRDKTGGSYFITRLISCFRKHACSCHLFDIFLKVQQSFEKASIHSQMPTIDRATLTRYFYLFPGN
notes: caspase-11, murine, p10 subunit, residues 286–373; source: E. coli, by auto-processing of MBP-tagged full-length wild-type caspase-11, purified
binding result [1]: binds

B2: MBP-tagged caspase-11 CARD, residues 1–101 (WT-CARD^aa1–101) (domain or fragment, murine, UniProt P70343 1-101, looked up)
chain: MAENKHPDKPLKVLEQLGKEVLTEYLEKLVQSNVLKLKEEDKQKFNNAERSDKRWVFVDAMKKKHSKVGEMLLQTFFSVDPGSHHGEANLEMEEPEESLNT
notes: source: E. coli Rosetta and BL21 (DE3), purified (nickel column, Superdex 200 gel filtration); not shown: MBP, N-terminal, kept; His6, C-terminal, kept
stoichiometry N [2]: 4
stoichiometry N [3]: 2

B3: MBP-tagged caspase-11 CARD, residues 1–101, V13A L14A L17A V21A (VLLV-CARD^aa1–101) (domain or fragment, murine, UniProt P70343 1-101, looked up)
chain: MAENKHPDKPLKAAEQAGKEALTEYLEKLVQSNVLKLKEEDKQKFNNAERSDKRWVFVDAMKKKHSKVGEMLLQTFFSVDPGSHHGEANLEMEEPEESLNT
notes: source: E. coli, purified (nickel column, gel filtration); not shown: MBP, N-terminal, kept; His6, C-terminal, kept
binding result [4]: binds

B4: MBP-tagged WT-CARD^aa1–101 with the first ten amino acids replaced by a GS repeat sequence (GS repeat mutant) (domain or fragment, murine)
chain: GSGSGSGSGSLKVLEQLGKEVLTEYLEKLVQSNVLKLKEEDKQKFNNAERSDKRWVFVDAMKKKHSKVGEMLLQTFFSVDPGSHHGEANLEMEEPEESLNT
notes: flexible GS repeat that replaces the first ten amino acids of caspase-11; source: E. coli, purified (nickel column, gel filtration); not shown: MBP, N-terminal, kept; His6, C-terminal, kept
binding result [4]: binds

B5: MBP-caspase-11 protein carrying only the C254A mutation (C254A-caspase-11) (enzyme, murine, UniProt P70343 1-373, looked up)
chain: MAENKHPDKPLKVLEQLGKEVLTEYLEKLVQSNVLKLKEEDKQKFNNAERSDKRWVFVDAMKKKHSKVGEMLLQTFFSVDPGSHHGEANLEMEEPEESLNTLKLCSPEEFTRLCREKTQEIYPIKEANGRTRKALIICNTEFKHLSLRYGANFDIIGMKGLLEDLGYDVVVKEELTAEGMESEMKDFAALSEHQTSDSTFLVLMSHGTLHGICGTMHSEKTPDVLQYDTIYQIFNNCHCPGLRDKPKVIIVQAARGGNSGEMWIRESSKPQLCRGVDLPRNMEADAVKLSHVEKDFIAFYSTTPHHLSYRDKTGGSYFITRLISCFRKHACSCHLFDIFLKVQQSFEKASIHSQMPTIDRATLTRYFYLFPGN
notes: caspase-11, murine, full-length protein with C254A; also called MBP-caspase-11 C254A; source: E. coli, purified (gel filtration); not shown: MBP, N-terminal, kept; His6, C-terminal, kept
binding result [4]: binds
